Source: patent US20180353525A1 (SOCPRA SCIENCES SANT ET HUMAINES S E C, published 2018)

How the values were obtained:
[1] = biological target: T1, receptor for activated C kinase (RACK1), endogenous, HT-1080 cells (human, UniProt P63244 1-317); assay: cell-based or functional assay
[2] = biological target: T1, receptor for activated C kinase …; assay: cell-based or functional assay; remark: listed apart in the source

Row | Binder | IC50 of doxorubicin, HT1080, MTT viability, C2 0.25 µM, 1% O2 (Experiment 2) [1] | IC50 of doxorubicin, HT1080, MTT viability, C2 0.25 µM, 21% O2 (Experiment 2) [1] | IC50 of doxorubicin, HT1080, MTT viability, C2 20.0 µM, 1% O2 (Experiment 2) [1] | IC50 of doxorubicin, HT1080, MTT viability, C2 20.0 µM, 21% O2 (Experiment 2) [1] | IC50 of doxorubicin, HT1080, MTT viability, C2 0.25 µM, 1% O2 (Experiment 1) [2] | IC50 of doxorubicin, HT1080, MTT viability, C2 0.25 µM, 21% O2 (Experiment 1) [2] | IC50 of doxorubicin, HT1080, MTT viability, C2 5.00 µM, 1% O2 (Experiment 1) [2] | IC50 of doxorubicin, HT1080, MTT viability, C2 5.00 µM, 21% O2 (Experiment 1) [2] | IC50 of doxorubicin, HT1080, MTT viability, C2WY→AA 0.25 µM, 1% O2 (Experiment 2) [1] | IC50 of doxorubicin, HT1080, MTT viability, C2WY→AA 0.25 µM, 21% O2 (Experiment 2) [1] | IC50 of doxorubicin, HT1080, MTT viability, C2WY→AA 20.0 µM, 1% O2 (Experiment 2) [1] | IC50 of doxorubicin, HT1080, MTT viability, C2WY→AA 20.0 µM, 21% O2 (Experiment 2) [1] | IC50 of doxorubicin, HT1080, MTT viability, C2WY→AA 0.25 µM, 1% O2 (Experiment 1) [2] | IC50 of doxorubicin, HT1080, MTT viability, C2WY→AA 0.25 µM, 21% O2 (Experiment 1) [2] | IC50 of doxorubicin, HT1080, MTT viability, C2WY→AA 5.00 µM, 1% O2 (Experiment 1) [2] | IC50 of doxorubicin, HT1080, MTT viability, C2WY→AA 5.00 µM, 21% O2 (Experiment 1) [2]
1 | RMWYNFDHNY [C2 peptide (RMWYNFDHNY)] | 30.6 nM | 11.7 nM | 15.7 nM | 10 nM | 39.7 nM | 12.2 nM | 39.1 nM | 17.2 nM |  |  |  |  |  |  |  | 
2 | RMAANFDHNY [C2WY→AA peptide (RMAANFDHNY)] |  |  |  |  |  |  |  |  | 98.9 nM | 12.5 nM | 74.3 nM | 10.9 nM | 99.1 nM | 21.3 nM | 76.4 nM | 16.4 nM
